Assay results reported in the supplement of paper PMC9233669.
Variants at the floor of the assay were thinned out.

Assays:
biotinyl-Leu-oxazolone = test: self-aminoacylation, catalytic enhancement (BLO) (fold over background); higher = more active; k-Seq, kA / k0A0; sequences stand for … in GGGAAUGGAUCCACAUCUACGAAUUC…UUCACUGCAGACUUGACGAAGCUG
Summary of the method: (§1)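 Each biotinyl-aminoacyl-oxazolone, at 2–1250 μM, was incubated with mutagenized RNA pools (0.43 μM) carrying a 21-nt variable region. The 50 μL reactions contained HEPES/NaCl/KCl/MgCl2/CaCl2 buffer with 5% acetonitrile at pH 6.9–7.0 and ran for 90 minutes at room temperature. After streptavidin capture, RNA was measured by qPCR in triplicate and by Illumina sequencing, and catalytic enhancement was calculated as median kA over the uncatalyzed rate from a pseudo-first-order fit of per-sequence fraction reacted.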

biotinyl-Val-oxazolone = test: self-aminoacylation, catalytic enhancement (BVO) (fold over background); higher = more active; k-Seq, kA / k0A0; sequences stand for … in GGGAAUGGAUCCACAUCUACGAAUUC…UUCACUGCAGACUUGACGAAGCUG
Summary of the method: as §1

biotinyl-Phe-oxazolone = test: self-aminoacylation, catalytic enhancement (BFO) (fold over background); higher = more active; k-Seq, kA / k0A0; sequences stand for … in GGGAAUGGAUCCACAUCUACGAAUUC…UUCACUGCAGACUUGACGAAGCUG
Summary of the method: as §1

biotinyl-Ile-oxazolone = test: self-aminoacylation, catalytic enhancement (BIO) (fold over background); higher = more active; k-Seq, kA / k0A0; sequences stand for … in GGGAAUGGAUCCACAUCUACGAAUUC…UUCACUGCAGACUUGACGAAGCUG
Summary of the method: as §1

biotinyl-Met-oxazolone = test: self-aminoacylation, catalytic enhancement (BMO) (fold over background); higher = more active; k-Seq, kA / k0A0; sequences stand for … in GGGAAUGGAUCCACAUCUACGAAUUC…UUCACUGCAGACUUGACGAAGCUG
Summary of the method: as §1

biotinyl-Trp-oxazolone = test: self-aminoacylation, catalytic enhancement (BWO) (fold over background); higher = more active; k-Seq, kA / k0A0; sequences stand for … in GGGAAUGGAUCCACAUCUACGAAUUC…UUCACUGCAGACUUGACGAAGCUG
Summary of the method: as §1

Sequence | self-aminoacylation (biotinyl-Leu-oxazolone) | self-aminoacylation (biotinyl-Val-oxazolone) | self-aminoacylation (biotinyl-Phe-oxazolone) | self-aminoacylation (biotinyl-Ile-oxazolone) | self-aminoacylation (biotinyl-Met-oxazolone) | self-aminoacylation (biotinyl-Trp-oxazolone)
CUAUUUCAAACAAACGGUCUG [Fam1A.1 aminoacylation ribozyme variant] | 0.72 | 0.971 | 1.2 | 0.961 | 0.923 | 0.586
AGUCACCUAUGUCAUCGGGUG [Fam2.2 aminoacylation ribozyme variant] | 4.74 | 3.19 | 31.8 | 3.74 | 4.37 | 4.85
AUAGACCUAGGUCAUCGGGUG [Fam2.2 aminoacylation ribozyme variant] | 3.85 | 2.65 | 19.5 | 2.59 | 2.93 | 4.2
AUUACCCUCGCCAUCGAGUGA [Fam2.1 aminoacylation ribozyme variant] | 7.31 | 3.97 | 41.1 | 3.71 | 6.67 | 8.23
CCACACUUCAUUCAAUCGGUC [Fam1B.1 aminoacylation ribozyme variant] | 0.701 | 0.744 | 0.605 | 0.806 | 0.604 | 0.495
AUAACCCUGGUCAUCGAGUGC [Fam2.1 aminoacylation ribozyme variant] | 2.44 | 1.42 | 4.44 | 1.33 | 1.96 | 1.89
AUUCACUUAGGUCAUCGCGUG [Fam2.2 aminoacylation ribozyme variant] | 15 | 6.11 | 94.5 | 6.03 | 11.7 | 11.1
AUUACCCUGGUUAUCGAGUUA [Fam2.1 aminoacylation ribozyme variant] | 1.01 | 0.885 | 0.868 | 0.945 | 1.15 | 0.319
CCUCCCUUCAAGCAAUCGGUC [Fam1B.1 aminoacylation ribozyme variant] | 1.17 | 1.13 | 13.8 | 1.2 | 0.881 | 8.87
AUUUACCUAGGUCAUCUGGUG [Fam2.2 aminoacylation ribozyme variant] | 3.75 | 1.95 | 16.8 | 2.15 | 2.73 | 3
CUACUACAAACUAUCGGUCUG [Fam1A.1 aminoacylation ribozyme variant] | 0.713 | 0.839 | 0.752 | 0.869 | 0.949 | 0.717
CUACUUCAGACAAACGGUCUG [Fam1A.1 aminoacylation ribozyme variant] | 0.908 | 0.863 | 0.868 | 0.89 | 0.962 | 0.573
AUUGAUCUAGGUCAUCGGGUG [Fam2.2 aminoacylation ribozyme variant] | 7.89 | 3.8 | 35.2 | 4.45 | 6.53 | 7.06
CUAUUUCAAACCAUCGGUCUG [Fam1A.1 aminoacylation ribozyme variant] | 0.94 | 0.988 | 0.809 | 1.03 | 1.09 | 0.708
AUUACCCUGGUCAACGAGUUA [Fam2.1 aminoacylation ribozyme variant] | 0.662 | 0.947 | 0.836 | 0.971 | 1.26 | 0.529
CCACACUUCAAGCAAGCGGGC [Fam1B.1 aminoacylation ribozyme variant] | 1.59 | 2.29 | 6.38 | 1.61 | 2.41 | 2.67
CCACUCUUCAAGAAAUCGGUC [Fam1B.1 aminoacylation ribozyme variant] | 0.903 | 0.871 | 5.4 | 0.932 | 0.91 | 4.87
AAGUUUGCCAAUAGGCGCAAG [Fam3.1 aminoacylation ribozyme variant] | 1.15 | 1.02 | 1.05 | 1.04 | 0.885 | 0.799
CUACUCCAGACAAUCGGUCUG [Fam1A.1 aminoacylation ribozyme variant] | 1.07 | 1.14 | 0.42 | 1 | 1.29 | 0.923
CUACUUCACACAAUCGGUCUU [Fam1A.1 aminoacylation ribozyme variant] | 0.856 | 0.85 | 0.701 | 0.963 | 0.639 | 0.713
AUUGACCCAGGUCAUCGGGUG [Fam2.2 aminoacylation ribozyme variant] | 6.54 | 3.31 | 34.9 | 3.6 | 4.74 | 5.64

Sequence | self-aminoacylation (biotinyl-Leu-oxazolone) | self-aminoacylation (biotinyl-Val-oxazolone) | self-aminoacylation (biotinyl-Phe-oxazolone) | self-aminoacylation (biotinyl-Ile-oxazolone) | self-aminoacylation (biotinyl-Met-oxazolone) | self-aminoacylation (biotinyl-Trp-oxazolone)
CCACACAUCAAGCAAUCGGAC [Fam1B.1 aminoacylation ribozyme variant] | 0.808 | 1.03 | 0.446 | 0.897 | 0.748 | 0.906
AUUACCCGGGUCAUCUAGUGA [Fam2.1 aminoacylation ribozyme variant] | 11 | 5.08 | 70.8 | 4.46 | 9.33 | 11.2
CUAAUUCAAACAAUCGGUCAG [Fam1A.1 aminoacylation ribozyme variant] | 0.566 | 0.546 | 1.46 | 0.602 | 0.583 | 0.765
AUUCACUUAGGUCAUCGGAUG [Fam2.2 aminoacylation ribozyme variant] | 0.579 | 0.714 | 0.46 | 0.701 | 0.766 | 0.528
AAGUUUCCUAAUAGUAGCAAG [Fam3.1 aminoacylation ribozyme variant] | 1.12 | 1.05 | 1.11 | 1.28 | 1.17 | 0.808
CCACACUACAAGCAAUCUGUC [Fam1B.1 aminoacylation ribozyme variant] | 0.49 | 0.566 | 0.747 | 0.496 | 0.271 | 0.353
AUUGACCUAGGUCAUCGGGUA [Fam2.2 aminoacylation ribozyme variant] | 59.5 | 16.7 | 355 | 20.4 | 47.1 | 31.5
AAGUUUGAUAAUAGACGCAAG [Fam3.1 aminoacylation ribozyme variant] | 0.311 | 0.418 | 0.787 | 0.364 | 0.346 | 0.331
AUUCACCUGGGUCAUCGGGUU [Fam2.2 aminoacylation ribozyme variant] | 9.06 | 5.13 | 17.4 | 4.39 | 6.89 | 7.09
CUACACUUCAAGCAAUCGGUA [Fam1B.1 aminoacylation ribozyme variant] | 0.755 | 0.65 | 1.37 | 0.739 | 0.709 | 0.846
CCAAAGUUCAAGCAAUCGGUC [Fam1B.1 aminoacylation ribozyme variant] | 1.28 | 1.4 | 1.35 | 1.35 | 1.32 | 1.17
AUUACCCAGGUCAUCGACUGA [Fam2.1 aminoacylation ribozyme variant] | 0.746 | 1.03 | 0.774 | 0.847 | 0.743 | 0.9
CUACUUCAAACAACCGUUCUG [Fam1A.1 aminoacylation ribozyme variant] | 0.625 | 0.676 | 0.558 | 0.723 | 0.611 | 0.515
AUUACCCUGGUCAUCGAGUAG [Fam2.1 aminoacylation ribozyme variant] | 4.67 | 2.64 | 13.9 | 2.15 | 4.51 | 4.18
CCAAUUCAAACAAUCGGUCUG [Fam1A.1 aminoacylation ribozyme variant] | 1.16 | 1.11 | 6.78 | 1.11 | 1.02 | 5.22
AACUUUGCAAAUAGUCGCAAG [Fam3.1 aminoacylation ribozyme variant] | 2.8 | 1.94 | 4.66 | 2.3 | 1.96 | 1.99
AUAACCCUGGUUAUCGAGUGA [Fam2.1 aminoacylation ribozyme variant] | 8.11 | 3.44 | 38.8 | 3.74 | 8.37 | 8.28
CAGUUUGCUAACAGUCGCAAG [Fam3.1 aminoacylation ribozyme variant] | 1.6 | 1.16 | 2 | 1.31 | 1.83 | 1.32
AUUACCCUGGUGAUCAAGUGA [Fam2.1 aminoacylation ribozyme variant] | 3.25 | 1.92 | 8.79 | 1.81 | 3.19 | 4.2
AAAUUUGCUAAUACUCGCAAG [Fam3.1 aminoacylation ribozyme variant] | 1.25 | 1.34 | 1.63 | 1.36 | 1.33 | 1.51
AUUACCCUGUUGAUCGAGUGA [Fam2.1 aminoacylation ribozyme variant] | 13 | 5.71 | 78.3 | 5.62 | 12.5 | 16.8
